# Reference: IntAct's records for PubMed 21209940
# B1: DNA-binding protein inhibitor ID-2 (Mus musculus), P41136 (parent)
# chain: MKAFSPVRSVRKNSLSDHSLGISRSKTPVDDPMSLLYNMNDCYSKLKELVPSIPQNKKVTKMEILQHVIDYILDLQIALDSHPTIVSLHHQRPGQNQASRTPLTTLNTDISILSLQASEFPSELMSNDSKVLCG
# B2: Myoblast determination protein 1 (Mus musculus), P10085 (parent)
# chain: MELLSPPLRDIDLTGPDGSLCSFETADDFYDDPCFDSPDLRFFEDLDPRLVHMGALLKPEEHAHFPTAVHPGPGAREDEHVRAPSGHHQAGRCLLWACKACKRKTTNADRRKAATMRERRRLSKVNEAFETLKRCTSSNPNQRLPKVEILRNAIRYIEGLQALLRDQDAAPPGAAAFYAPGPLPPGRGSEHYSGDSDASSPRSNCSDGMMDYSGPPSGPRRQNGYDTAYYSEAARESRPGKSAAVSSLDCLSSIVERISTDSPAAPALLLADAPPESPPGPPEGASLSDTEQGTQTPSPDAAPQCPAGSNPNAIYQVL
# partner: B1 chain
# Variants of: B1
# Settings: with myod1_mouse Myod1, P10085
row,Variant,effect of a mutation on the interaction
1,V86K,decreasing interaction
2,L124K,decreasing interaction

# Variants of: B2
# Settings: with id2_mouse Id2, P41136
row,Variant,effect of a mutation on the interaction
1,I157K,disrupting interaction
2,Q161K,decreasing interaction
3,I149K,disrupting interaction
4,L160K,decreasing interaction
5,L150K,decreasing interaction
